Substrate: Nc1ncnc2c1ncn2[C@@H]1O[C@H](COP(=O)(O)OP(=O)(O)OP(=O)(O)O)[C@@H](O)[C@H]1O
Assay: HPLC of inositol phosphates, Michaelis-Menten fit
Format: biochemical, Arabidopsis thaliana
Details: co-substrate Ins(3,4,5,6)P4 (preferred), 0.08-10 mM ATP, 1 mM MgCl2, HEPES pH 7.5, 25 C

B1: ITPK1 (AtITPK1) (Arabidopsis thaliana) (protein)
chain: MSDSIQERYLVGYALAAKKQHSFIQPSLIEHSRQRGIDLVKLDPTKSLLEQGKLDCIIHKLYDVYWKENLHEFREKCPGVPVIDLPEAIERLHNRVSMLEVITQLRFPVSDSERFGVPEQVVVMDSSVLSGGGALGELKFPVIAKPLDADGSAKSHKMFLIYDQEGMKILKAPIVLQEFVNHGGVIFKVYVVGDHVKCVKRRSLPDISEEKIGTSKGSLPFSQISNLTAQEDKNIEYGEDRSLEKVEMPPLSFLTDLAKAMRESMGLNLFNFDVIRDAKDANRYLIIDINYFPGYAKMPSYEPVLTEFFWDMVTKKNHV
notes: recombinant in E. coli Rosetta 2(DE3)pLysS, pOPINF, 3C-cleavable His tag (printed as C-terminal); Ni-NTA and Superdex 75
Question: How did the Km turn out when B1 was run?
Answer: 770 ± 190 µM

Source: article PMC7115839, “An ATP-responsive metabolic cassette comprised of inositol tris/tetrakisphosphate kinase 1 (ITPK1) and inositol pentakisphosphate 2-kinase (IPK1) buffers diphosphosphoinositol phosphate levels” (Biochemical Journal, 2020)
